Reference: EP1188448A2

Biological target: FGF receptors
Experiment: cell-based or functional assay

| Substance | ID50, cytotoxicity on SK-Mel-28 cells (72 h, MTT) [nM] | ID50, inhibition of proliferation of serum stimulated rabbit keratocytes (3 h) [nM] | ID50, inhibition of rabbit keratocyte proliferation (48 h) [nM] | ED50, cytotoxicity on SK-MEL-28 cells [ng/mL] |
| --- | --- | --- | --- | --- |
| bFGF-SAP fusion protein (FGF-Ala-Met-SAP), wild type | 0.6 | 1 to 10 | 0.2 | – |
| wild type bFGF-SAP chemical conjugate (heterogeneous FGF-SAP) (from UniProt P20656 25-277) | 0.3 | 1 to 10 | 0.1 | 8 |
